B1: FAM46C (parent)
chain: FDHLQNRLIATKNPEEIRGGGLLK
B2: SLC35F2 (parent)
chain: QYLAERYKVNTPMLQSFINYCLLF

Variants of: B1
Assay: protein stability index of a GFP-peptide fusion (GPS, HEK-293T) (PSI 1-6); higher = more stable
Settings: c terminus: a fixed tail appended
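Also: lentivirally expressed fusions sorted by FACS into six bins by GFP to DsRed ratio, PSI derived from sequencing read proportions per bin multiplied by bin number.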

Protein stability index, by site and new letter:
G19: I 3.18 | Y 3.25 | E 4.04 | L 2.57 | C 3.57 | A 3.48 | D 4.6 | T 4.01 | N 3.79 | S 3.69 | M 2.61 | H 3.99 | W 1.74 | R 4.27 | V 3.18 | Q 3.74 | K 4.26 | F 1.73 | P 3.29
G21: H 3.94 | N 4.51 | P 3.91 | E 3.93 | T 4.07 | R 3.47 | C 3.29 | F 2.82 | W 2.28 | I 2.92 | Y 3.21 | M 3.25 | V 3.53 | K 4.26 | L 2.61 | S 4.06 | D 4 | Q 3.41 | A 3.69
L23: H 4.73 | K 5.07 | E 4.17 | A 3.81 | Y 2.99 | W 3.2 | V 4.3 | F 3.36 | N 4.43 | I 4.02 | M 4.55 | Q 5.13 | S 3.93 | R 4.29 | D 4.65 | T 4.56
P14: R 4 | L 3.87 | C 3.74 | Q 3.54 | N 4.12 | T 3.84 | D 3.87 | S 3.49 | A 3.69 | V 3.25 | F 2.97 | W 2.59 | G 4.2 | K 3.77 | M 3.66 | I 2.39 | Y 3.2
R18: I 3.32 | C 4.44 | T 3.2 | E 4.67 | K 4.05 | F 2.98 | N 3.83 | W 2.58 | M 3.03 | D 4.42 | V 3.64 | S 3.77 | A 3.75 | L 3.39 | Y 3.58 | Q 4.37 | P 4.26
N13: H 2.77 | Q 3.86 | G 2.86 | W 3.14 | S 3.62 | M 2.81 | T 3.64 | K 4.03 | I 3.47
G20: L 4.19 | A 3.44 | I 3.11 | T 3.51 | P 3.6 | V 3.2 | F 2.77 | Q 2.42 | M 2.76 | N 3.74 | S 3.69 | Y 2.85 | R 4.03 | K 3.98 | D 4.05 | W 3.16 | C 3.21 | H 3.72
E15: A 3.92 | F 3.06 | S 3.75 | L 2.78 | N 3.95 | Q 2.53 | W 2.63 | D 4.07 | I 2.93 | P 3.13 | K 3.25 | Y 1.97 | R 3.89 | M 4.01 | G 2.99 | H 3.65 | T 3.29 | C 2.9
I17: S 4.35 | H 4.28 | K 3.39 | Y 3.58 | P 3.55 | W 3.44 | E 4.26 | M 3.82 | D 4.52 | N 4.27 | Q 4.86 | T 4.01 | F 3.46 | R 3.86 | C 4.18 | A 4.4
E16: T 3.79 | D 4.13 | C 2.85 | P 2.73 | K 4.02 | G 2.93 | I 3.9 | F 2.44 | S 3.48 | L 2.9 | V 3.61 | Y 3.91 | R 3.47 | W 2.5 | Q 3.58 | N 3.67 | A 3.43 | H 2.55
K24: I 1.96 | Q 3.27 | G 3.52 | A 2.94 | T 3.45 | F 2.2 | Y 1.93 | C 2.28 | D 3.51 | M 3.11 | L 2.18 | E 3.79 | N 3.52 | H 3.07 | V 2.29 | W 1.95 | S 2.9 | R 3.35
L22: A 4.86 | N 4.57 | K 4.46 | G 4.02 | F 2.76 | V 4.14 | T 4.34 | D 4.71 | C 3.78 | Q 4.06 | R 3.98 | S 4.32 | P 4.2 | Y 3.78 | I 4.01 | M 4 | H 4.2 | E 4.3

Variants of: B2
Assay: as above
Settings: c terminus: a fixed tail appended

Protein stability index of substitutions, site by site:
E5: I 3.06 | W 2.54 | Q 2.72 | D 2.88 | V 4.14 | F 3.74 | N 2.62 | Y 2.14 | K 1.96 | C 3.78 | G 2.03 | H 3.1 | S 2.14 | P 2.34 | L 2.72 | A 3.18 | R 3.95 | M 4.24 | T 2.14
Y7: Q 3.26 | D 2.49 | M 1.62 | K 2.53 | G 3.27 | H 2.95 | A 3.17 | F 2.18 | W 1.84 | V 2.92 | I 2.21 | T 2.19 | S 2.48 | L 2.35 | P 2.98 | C 3.12 | N 2.89 | R 1.55 | E 2.03
L3: F 3.46 | A 3.3 | V 2.34 | S 2.5 | R 2.98 | Y 2.34 | E 1.45 | D 3 | M 2.5 | Q 2.94 | T 2.7 | C 2.93 | N 2.71 | G 2.92 | H 2.5 | P 3.5 | I 3.32 | K 2.43
Y2: C 2.17 | A 2.29 | N 2.61 | P 1.74 | R 2.1 | W 2.26 | I 1.68 | S 2.08 | D 1.83 | G 2.52 | E 1.93 | T 2.29 | Q 1.97 | M 1.24 | H 1.89 | L 2.15 | V 2.59 | F 3.47 | K 2.17
Q1: L 2.23 | G 3.99 | H 1.53 | I 2.1 | N 2.15 | K 2.27 | Y 2.86 | R 1.94 | A 2.56 | C 3.23 | P 1.77 | D 3.23 | M 2.43 | T 2.71 | F 2.37 | W 2.68 | V 3.18 | E 1.97 | S 2.47
R6: L 2.11 | A 2.7 | Q 2.34 | N 3.2 | T 2.97 | C 2.86 | W 2.51 | G 2 | K 2.42 | Y 1.16 | M 2.25 | H 3.38 | I 2.56 | S 2.94 | V 2.92 | E 2.72 | D 1.99 | P 3.62
A4: W 2.53 | F 1.83 | Q 2.56 | G 3.01 | C 3.16 | P 2.88 | I 2.65 | R 2.53 | K 3.59 | M 3.1 | S 3.11 | D 2.26 | V 3.22 | Y 2.38 | E 2.76 | H 1.99 | T 3.02 | N 3.76 | L 3.42
